# Reference: paper PMC11206678, “Peptide-Alkoxyamine Drugs: An Innovative Approach to Fight Schistosomiasis: “Digging Their Graves with Their Forks”” (Pathogens, 2024)
# Where a name gives a salt, the structure may show the parent alone.
# How the values were obtained:
# [1] = Homolysis kinetics of alkoxyamines by EPR (growth of nitroxide); assay type: physicochemical; settings: mixture of diastereoisomers; for Homolysis rate constant kd: 0.1 mM alkoxyamine, O2 as alkyl radical scavenger; for Activation energy Ea: by Equation (2) from kd and T, A = 2.4 10^14 s^−1
# Protocol: Preparation of alkoxyamines and reference samples. All reagents including anhydrous solvents used for the chemical synthesis were purchased from commercially available sources such as Merck, TCI, and Fluorochem, and were used without further purification. All air and/or water-sensitive reactions were carried out under an argon atmosphere with dry solvents using standard syringe-cannula/septa techniques. Routine monitoring of reactions was performed using Merck Silica gel 60 F254, aluminum-supported TLC plates; spots were visualized using UV light and ethanolic acidic para-anisaldehyde solution or ethanolic phosphomolybdic solution, followed by heating. Purifications by means of column chromatography were performed with Silica gel 60 (230–400 mesh). ^1H, ^13C, and ^19F NMR spectra were obtained in CDCl3, MeOD (with residual H2O), D2O, DMSO-d6, or C6D6 solutions on by using Bruker AC400 (400 MHz) and Bruker AC300 (300 MHz) spectrometers. High-resolution mass spectra (HRMS) have been performed using a SYNAPT G2 HDMS (Waters) mass spectrometer equipped with a pneumatically assisted atmospheric pressure ionization (API) source. The sample was ionized in positive electrospray mode under the following conditions: electrospray voltage: 2.8 kV; port voltage: 20 V; Nebulizing gas flow rate (nitrogen): 100 L/h or in negative electrospray mode under the following conditions: electrospray voltage: −2.27 kV; port voltage: −20 V; Nebulizing gas flow rate (nitrogen): 100 L/h. The mass spectra (MS) were obtained with a time-of-flight (TOF) analyzer. The exact mass measurements were carried out in triplicate with external calibration. Homolysis constants were measured by EPR on an EMX Bruker spectrometer from 10^−4 M samples in tertbutyl benzene or in a mixture of H2O-nPrOH (1:1; v:v).
# Kinetic experiments. Kinetics of A1–A7 (Scheme 2) for series L and D are performed by monitoring the growth of nitroxide by Electron Paramagnetic Resonance (X-band EMX Bruker machine) in tert-butylbenzene and a water/n-PrOH (for a good solubility of the alkoxyamine) as solvents and using O2 as alkyl radical scavenger to suppress the back reaction (kc in Scheme 2) as already reported. Homolysis rate constants kd are given by Equation (1) ([nitroxide]∞ = [alkoxyamine]0 = 0.1 mM, see Table S1) and the subsequent activation energies Ea given by Equation (2). (1) lnnitroxide∞−nitroxidet/nitroxide∞=−kd·t, (2) Ea=−RTlnkd/A.
# Vero cells = assay type: cell-based; settings: 48 h
# Protocol: A non-cancer line of Vero cells was used to determine the cytotoxicity of the compound against mammalian cells. They were evaluated at a final DMSO concentration of 0.5%. The culture medium was MEM (Dutscher, Bernolsheim, France) supplemented with 10% fetal bovine serum (Fisher Scientific, Illkirch, France), 1X non-essential amino acids (Fisher Scientific, Illkirch, France), 100 U/mL, 100 µg/mL penicillin/streptomycin (Fisher Scientific, Illkirch, France), and 2 mM L-glutamine (Fisher Scientific, Illkirch, France) at 37 °C in a humidified 5% CO2 atmosphere. Vero cells (100 µL of 10^5 cells/mL per well) were plated in 96-well plates for 24 h then treated with 100 µL of compound dilutions (in duplicate) during 48 h. All molecules were tested from 5 nM to 50 µM. Each well was then examined under the microscope to detect any precipitate formation before the supernatant was removed by flicking the plate. A volume of 100 µL of 0.5 mg/mL in MEM from a stock solution at 5 mg/mL of PBS-dissolved MTT (3-(4,5-dimethylthiazol-2-yl)-2,5-diphenyltetrazolium bromide, Sigma Aldrich/Merck, Darmstadt, Germany) was then added to each well [20].
# After incubation for 1 h at 37 °C and 5% CO2 the supernatant was removed and 100 µL of DMSO were added. Plates were gently shaken to dissolve formazan crystals resulting from the MTT reduction by living cells and read at 570 nm with the VICTOR Nivo plate reader (Perkin Elmer, Waltham, MA, USA). CC50 values were determined using GraphPad Prism 7 software (San Diego, CA, USA).
# [2] = tested on: Schistosoma mansoni adult worms; assay: Viability of Schistosoma mansoni adult worms in vitro; assay type: cell-based, Schistosoma mansoni NMRI strain; settings: 37 °C; for time to kill all parasites / time to reach the death of half of the population of worms: Table S1, dose at 100 μg/ml, unit not given in Table S1 (h in Table 2); for Activity/toxicity towards schistosomes (in words): adult worms, 100 μg/mL
# Protocol: Experiments on the viability of Schistosoma mansoni adult worms. In vitro tests were performed on Schistosoma mansoni NMRI strains. This parasite is lab maintained on Biomphalaria glabrata (BRE strain) as intermediate mollusc host and Golden Hamster (Janvier Labs, Le Genest-Saint-Isle, France) as definitive vertebrate host. Methods, for molluscs’ and hamsters’ infection and for parasite recovery, were previously described. Adult worms were recovered by hepatic perfusion technique between 42 and 47 days post hamster exposition to parasite larvae. Worms were carefully collected and disposed in 12-well Falcon® plate containing 2 mL of RPMI 1640 (supplemented with L-glutamine and Hepes 25 mM). The plates containing a minimum of 15 worms by well were then placed in an incubator chamber at 37 °C and 5% CO2. The worms sex ratio was almost balanced in each well. The drug was first dissolved in DMSO (Sigma-Aldrich) to give a 100 mg/mL mother solution. Then the stock solution was complemented with Tween 80 and RPMI to obtain the following final ratio dilution: RPMI 1640/Tween 80/DMSO and 1000/0.95/3.8, v/v/v.
# All molecules were tested at a final concentration of 100 µg/mL and 10 µg/mL. A negative control consisted in adding the same RPMI 1640/Tween 80/DMSO solution, but without any drug and a positive control consisted in adding praziquantel. All molecules and control were performed in duplicates of well. The worm viability was checked after 1, 2, 3, 4, 5, 6, 7, 8, 24, 48, and 72 h after adding the molecule.
# [3] = C–ON bond homolysis in water/n-PrOH v/v 1:1, EPR, T (°C): A1L 95.1, A3L 94.5, A4L 94.6, A5L 94.0, A6L 94.8, A7L 94.3, A1D 93.5, A3D 92.6, A4D 95.0, A5D 94.6
Structure (SMILES),"Homolysis rate constant kd [1, 3]",Activation energy Ea ([1]; in water/n-PrOH v/v 1:1) [kcal/mol],CC50 (Vero cells) [nM],time to kill all parasites [2],time to reach the death of half of the population of worms [2],Activity/toxicity towards schistosomes (in words) [2],"Homolysis rate constant kd ([1]; C–ON bond homolysis in t-BuPh, EPR, T (°C): A1L 128.0, A3L 125.0, A5L 130.0, A6L 125, A7L 126.5, A1D 122.5, A3D 119.8, A5D 130)",Activation energy Ea ([1]; in t-BuPh) [kcal/mol]
"CC(ON1C(C)(C)CCCC1(C)C)c1ccc(NC(=O)[C@@H](Cc2ccccc2)NC(=O)[C@H](NC(=O)[C@H](N)Cc2ccccc2)C(C)C)cc1 (stereo partly drawn) [A4D, (2R)-1-(((2R)-3-methyl-1-oxo-1-(((2R)-1-oxo-3-phenyl-1-((4-(1-((2,2,6,6-tetramethylpiperidin-1-yl)oxy)ethyl)phenyl)amino)propan-2-yl)amino)butan-2-yl)amino)-1-oxo-3-phenylpropan-2-aminium trifluoroacetate]",1.2 10^−4 s^−1,30.81,2600 ± 300,7,2,toxic to schistosomes,,
"CC(ON1C(C)(C)CCCC1(C)C)c1ccc(NC(=O)[C@@H](Cc2ccccc2)NC(=O)[C@H](NC(=O)[C@H](N)Cc2ccccc2)C(C)C)cc1 (stereo partly drawn) [A5D, (2R)-2-((R)-2-amino-3-phenylpropanamido)-3-methyl-N-((2R)-1-oxo-3-phenyl-1-((4-(1-((2,2,6,6-tetramethylpiperidin-1-yl)oxy)ethyl)phenyl)amino)propan-2-yl)butanamide]",1.3 10^−4 s^−1,30.71,2200 ± 300,4,1,toxic to schistosomes,11.6 10^−4 s^−1,31.72
